Laboratory results: PMC9596381 (2022)
Read-outs that look alike come from different tables or passages of the source. Each block holds one binder with its values, some of them ahead of it.

Assays:
[1] = target: T1, human glypican-3 core domain, residues 32-483 (hGPC3^core) (human, UniProt P51654 32-483, N-linked glycans at N124 and N241); test: SPR
[2] = target: T1, human glypican-3 core domain, residues …; test: SPR; remark: listed apart in the source

T1 sequence (P51654 32-483): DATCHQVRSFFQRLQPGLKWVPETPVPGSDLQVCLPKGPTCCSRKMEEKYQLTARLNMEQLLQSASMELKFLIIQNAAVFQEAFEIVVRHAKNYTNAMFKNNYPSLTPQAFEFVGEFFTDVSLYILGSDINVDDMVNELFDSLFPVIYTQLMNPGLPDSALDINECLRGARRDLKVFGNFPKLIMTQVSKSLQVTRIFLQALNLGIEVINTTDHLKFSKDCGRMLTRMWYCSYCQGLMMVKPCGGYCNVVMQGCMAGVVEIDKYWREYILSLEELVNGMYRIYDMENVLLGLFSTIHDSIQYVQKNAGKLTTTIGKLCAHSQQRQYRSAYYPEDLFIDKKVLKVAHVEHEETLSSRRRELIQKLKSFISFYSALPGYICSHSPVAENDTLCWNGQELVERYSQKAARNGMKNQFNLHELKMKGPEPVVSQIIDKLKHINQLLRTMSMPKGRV

Kd [1]: 3300 nM
B1: mouse Unc5C ectodomain (domain or fragment)
chain: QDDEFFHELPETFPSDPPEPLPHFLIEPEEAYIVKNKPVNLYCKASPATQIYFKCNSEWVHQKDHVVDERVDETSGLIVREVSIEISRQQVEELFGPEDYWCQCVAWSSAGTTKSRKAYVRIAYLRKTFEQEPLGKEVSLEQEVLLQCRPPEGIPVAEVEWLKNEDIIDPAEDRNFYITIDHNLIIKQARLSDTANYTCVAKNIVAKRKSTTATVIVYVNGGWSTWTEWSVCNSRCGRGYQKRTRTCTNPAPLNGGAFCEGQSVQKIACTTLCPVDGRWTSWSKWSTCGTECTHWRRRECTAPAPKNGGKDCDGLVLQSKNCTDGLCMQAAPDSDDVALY
modifications: biotin on the Avi-tag

Kd [2]: 265 nM
B2: Rattus norvegicus Unc5D residues 32-307 (rUnc5D^IgIgTSP) (domain or fragment)
chain: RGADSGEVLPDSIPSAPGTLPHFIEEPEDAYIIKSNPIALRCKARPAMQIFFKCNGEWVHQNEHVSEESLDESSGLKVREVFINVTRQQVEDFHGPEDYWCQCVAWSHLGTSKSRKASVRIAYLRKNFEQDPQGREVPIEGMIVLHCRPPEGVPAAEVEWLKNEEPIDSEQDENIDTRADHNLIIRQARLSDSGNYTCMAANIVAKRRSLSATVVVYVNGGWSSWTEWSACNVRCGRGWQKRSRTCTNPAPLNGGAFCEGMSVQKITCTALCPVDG
modifications: C-mannosylated tryptophans W253 and W256 (TSP1)
